Source: the supplement of paper PMC11136658

Test system: peptide library, one residue held at a place counted from the Y acceptor
Test: relative phosphorylation of the sub-library (ratio to the mean residue at this position); higher = residue favoured
Summary of the method: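 Biotinylated Tyr-centred peptide library mixtures, each fixing one residue at one position from −5 to +5, were incubated with purified recombinant kinases in 384-well plates for 90 min with 50 μM ATP plus γ-32P-ATP. Streptavidin membranes captured the peptides, which were rinsed and quantified by phosphorimaging and ImageQuant. At each position, intensities were divided by the sum of the 18 randomized residues (16 for the Ser/Thr-free library) and multiplied by that number. Each value is phosphorylation relative to the mean randomized residue.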

TEC, construct: Full length, human, sequence (P42680 whole entry, looked up): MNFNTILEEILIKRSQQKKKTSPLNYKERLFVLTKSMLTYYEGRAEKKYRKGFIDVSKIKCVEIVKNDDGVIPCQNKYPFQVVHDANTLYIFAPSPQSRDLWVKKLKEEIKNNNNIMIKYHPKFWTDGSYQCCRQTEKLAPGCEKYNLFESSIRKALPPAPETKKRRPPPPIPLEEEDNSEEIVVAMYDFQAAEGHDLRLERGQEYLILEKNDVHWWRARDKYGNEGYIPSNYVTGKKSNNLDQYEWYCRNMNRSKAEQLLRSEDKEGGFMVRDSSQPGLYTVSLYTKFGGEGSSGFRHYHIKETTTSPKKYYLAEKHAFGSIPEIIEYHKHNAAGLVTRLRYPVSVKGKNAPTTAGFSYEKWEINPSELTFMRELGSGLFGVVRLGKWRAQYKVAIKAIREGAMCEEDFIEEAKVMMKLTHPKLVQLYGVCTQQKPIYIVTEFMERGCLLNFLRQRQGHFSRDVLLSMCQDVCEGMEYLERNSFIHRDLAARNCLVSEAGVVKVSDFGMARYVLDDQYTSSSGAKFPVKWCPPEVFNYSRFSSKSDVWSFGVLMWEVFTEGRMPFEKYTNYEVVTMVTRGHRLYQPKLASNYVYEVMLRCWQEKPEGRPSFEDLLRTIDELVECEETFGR

TEC, construct: Full length, human (from UniProt P42680)
relative phosphorylation (A fixed, at +1): 1.7
relative phosphorylation (A fixed, at +2): 0.954
relative phosphorylation (A fixed, at +3): 0.562
relative phosphorylation (A fixed, at +4): 0.694
relative phosphorylation (A fixed, at +5): 0.847
relative phosphorylation (A fixed, at -1): 0.4
relative phosphorylation (A fixed, at -2): 1.06
relative phosphorylation (A fixed, at -3): 0.921
relative phosphorylation (A fixed, at -4): 1.1
relative phosphorylation (A fixed, at -5): 0.884
relative phosphorylation (D fixed, at +1): 0.761
relative phosphorylation (D fixed, at +2): 0.712
relative phosphorylation (D fixed, at +3): 0.353
relative phosphorylation (D fixed, at +4): 0.726
relative phosphorylation (D fixed, at +5): 0.87
relative phosphorylation (D fixed, at -1): 0.463
relative phosphorylation (D fixed, at -2): 1.44
relative phosphorylation (D fixed, at -3): 1.42
relative phosphorylation (D fixed, at -4): 1.41
relative phosphorylation (D fixed, at -5): 1.26
relative phosphorylation (E fixed, at +1): 2.13
relative phosphorylation (E fixed, at +2): 0.838
relative phosphorylation (E fixed, at +3): 0.301
relative phosphorylation (E fixed, at +4): 0.674
relative phosphorylation (E fixed, at +5): 0.934
relative phosphorylation (E fixed, at -1): 0.454
relative phosphorylation (E fixed, at -2): 1.82
relative phosphorylation (E fixed, at -3): 1.65
relative phosphorylation (E fixed, at -4): 1.51
relative phosphorylation (E fixed, at -5): 1.06
relative phosphorylation (F fixed, at +1): 0.677
relative phosphorylation (F fixed, at +2): 1.07
relative phosphorylation (F fixed, at +3): 1.65
relative phosphorylation (F fixed, at +4): 1.12
relative phosphorylation (F fixed, at +5): 1.11
relative phosphorylation (F fixed, at -1): 1.33
relative phosphorylation (F fixed, at -2): 0.585
relative phosphorylation (F fixed, at -3): 1.32
relative phosphorylation (F fixed, at -4): 0.973
relative phosphorylation (F fixed, at -5): 0.94
relative phosphorylation (G fixed, at +1): 0.565
relative phosphorylation (G fixed, at +2): 0.515
relative phosphorylation (G fixed, at +3): 0.568
relative phosphorylation (G fixed, at +4): 0.821
relative phosphorylation (G fixed, at +5): 0.921
relative phosphorylation (G fixed, at -1): 0.263
relative phosphorylation (G fixed, at -2): 1.11
relative phosphorylation (G fixed, at -3): 0.917
relative phosphorylation (G fixed, at -4): 1.03
relative phosphorylation (G fixed, at -5): 1.02
relative phosphorylation (H fixed, at +1): 0.582
relative phosphorylation (H fixed, at +2): 1.04
relative phosphorylation (H fixed, at +3): 1.2
relative phosphorylation (H fixed, at +4): 1.55
relative phosphorylation (H fixed, at +5): 1.24
relative phosphorylation (H fixed, at -1): 0.555
relative phosphorylation (H fixed, at -2): 1.04
relative phosphorylation (H fixed, at -3): 0.944
relative phosphorylation (H fixed, at -4): 0.967
relative phosphorylation (H fixed, at -5): 1.13
relative phosphorylation (I fixed, at +1): 1.21
relative phosphorylation (I fixed, at +2): 0.776
relative phosphorylation (I fixed, at +3): 1.75
relative phosphorylation (I fixed, at +4): 0.789
relative phosphorylation (I fixed, at +5): 0.637
relative phosphorylation (I fixed, at -1): 5.08
relative phosphorylation (I fixed, at -2): 0.736
relative phosphorylation (I fixed, at -3): 0.746
relative phosphorylation (I fixed, at -4): 0.857
relative phosphorylation (I fixed, at -5): 0.79
relative phosphorylation (K fixed, at +1): 0.295
relative phosphorylation (K fixed, at +2): 0.932
relative phosphorylation (K fixed, at +3): 0.78
relative phosphorylation (K fixed, at +4): 1.23
relative phosphorylation (K fixed, at +5): 1.23
relative phosphorylation (K fixed, at -1): 0.279
relative phosphorylation (K fixed, at -2): 0.915
relative phosphorylation (K fixed, at -3): 0.682
relative phosphorylation (K fixed, at -4): 0.924
relative phosphorylation (K fixed, at -5): 1.06
relative phosphorylation (L fixed, at +1): 0.935
relative phosphorylation (L fixed, at +2): 0.918
relative phosphorylation (L fixed, at +3): 1.4
relative phosphorylation (L fixed, at +4): 0.889
relative phosphorylation (L fixed, at +5): 0.838
relative phosphorylation (L fixed, at -1): 2.88
relative phosphorylation (L fixed, at -2): 0.9
relative phosphorylation (L fixed, at -3): 0.814
relative phosphorylation (L fixed, at -4): 0.955
relative phosphorylation (L fixed, at -5): 0.921
relative phosphorylation (M fixed, at +1): 1.58
relative phosphorylation (M fixed, at +2): 0.86
relative phosphorylation (M fixed, at +3): 1.25
relative phosphorylation (M fixed, at +4): 0.98
relative phosphorylation (M fixed, at +5): 0.956
relative phosphorylation (M fixed, at -1): 1.26
relative phosphorylation (M fixed, at -2): 0.806
relative phosphorylation (M fixed, at -3): 0.932
relative phosphorylation (M fixed, at -4): 0.945
relative phosphorylation (M fixed, at -5): 1.01
relative phosphorylation (N fixed, at +1): 0.466
relative phosphorylation (N fixed, at +2): 1.2
relative phosphorylation (N fixed, at +3): 0.692
relative phosphorylation (N fixed, at +4): 0.896
relative phosphorylation (N fixed, at +5): 1.01
relative phosphorylation (N fixed, at -1): 0.433
relative phosphorylation (N fixed, at -2): 1.19
relative phosphorylation (N fixed, at -3): 1.25
relative phosphorylation (N fixed, at -4): 1.01
relative phosphorylation (N fixed, at -5): 1.21
relative phosphorylation (P fixed, at +1): 0.143
relative phosphorylation (P fixed, at +2): 0.67
relative phosphorylation (P fixed, at +3): 0.721
relative phosphorylation (P fixed, at +4): 0.986
relative phosphorylation (P fixed, at +5): 1.07
relative phosphorylation (P fixed, at -1): 0.38
relative phosphorylation (P fixed, at -2): 1.13
relative phosphorylation (P fixed, at -3): 0.962
relative phosphorylation (P fixed, at -4): 0.989
relative phosphorylation (P fixed, at -5): 0.949
relative phosphorylation (Q fixed, at +1): 1.33
relative phosphorylation (Q fixed, at +2): 1.07
relative phosphorylation (Q fixed, at +3): 0.643
relative phosphorylation (Q fixed, at +4): 1.05
relative phosphorylation (Q fixed, at +5): 1.03
relative phosphorylation (Q fixed, at -1): 0.441
relative phosphorylation (Q fixed, at -2): 1.22
relative phosphorylation (Q fixed, at -3): 0.967
relative phosphorylation (Q fixed, at -4): 1.28
relative phosphorylation (Q fixed, at -5): 1.2
relative phosphorylation (R fixed, at +1): 0.413
relative phosphorylation (R fixed, at +2): 1.66
relative phosphorylation (R fixed, at +3): 1.32
relative phosphorylation (R fixed, at +4): 1.61
relative phosphorylation (R fixed, at +5): 1.36
relative phosphorylation (R fixed, at -1): 0.274
relative phosphorylation (R fixed, at -2): 0.882
relative phosphorylation (R fixed, at -3): 0.773
relative phosphorylation (R fixed, at -4): 0.891
relative phosphorylation (R fixed, at -5): 1.15
relative phosphorylation (S fixed, at +1): 1.22
relative phosphorylation (S fixed, at +2): 1.31
relative phosphorylation (S fixed, at +3): 0.67
relative phosphorylation (S fixed, at +4): 0.871
relative phosphorylation (S fixed, at +5): 0.997
relative phosphorylation (S fixed, at -1): 0.409
relative phosphorylation (S fixed, at -2): 0.942
relative phosphorylation (S fixed, at -3): 1.1
relative phosphorylation (S fixed, at -4): 0.771
relative phosphorylation (S fixed, at -5): 0.919
relative phosphorylation (T fixed, at +1): 1.05
relative phosphorylation (T fixed, at +2): 1.13
relative phosphorylation (T fixed, at +3): 0.702
relative phosphorylation (T fixed, at +4): 0.817
relative phosphorylation (T fixed, at +5): 0.924
relative phosphorylation (T fixed, at -1): 0.801
relative phosphorylation (T fixed, at -2): 0.856
relative phosphorylation (T fixed, at -3): 0.78
relative phosphorylation (T fixed, at -4): 0.626
relative phosphorylation (T fixed, at -5): 0.754
relative phosphorylation (V fixed, at +1): 1.57
relative phosphorylation (V fixed, at +2): 1.03
relative phosphorylation (V fixed, at +3): 1.26
relative phosphorylation (V fixed, at +4): 0.785
relative phosphorylation (V fixed, at +5): 0.656
relative phosphorylation (V fixed, at -1): 1.7
relative phosphorylation (V fixed, at -2): 0.782
relative phosphorylation (V fixed, at -3): 0.775
relative phosphorylation (V fixed, at -4): 0.785
relative phosphorylation (V fixed, at -5): 0.887
relative phosphorylation (W fixed, at +1): 1.38
relative phosphorylation (W fixed, at +2): 1.31
relative phosphorylation (W fixed, at +3): 2.18
relative phosphorylation (W fixed, at +4): 1.51
relative phosphorylation (W fixed, at +5): 1.37
relative phosphorylation (W fixed, at -1): 0.596
relative phosphorylation (W fixed, at -2): 0.589
relative phosphorylation (W fixed, at -3): 1.05
relative phosphorylation (W fixed, at -4): 0.981
relative phosphorylation (W fixed, at -5): 0.856
relative phosphorylation (pThr fixed, at +1): 1.91
relative phosphorylation (pThr fixed, at +2): 1.66
relative phosphorylation (pThr fixed, at +3): 0.298
relative phosphorylation (pThr fixed, at +4): 0.525
relative phosphorylation (pThr fixed, at +5): 0.563
relative phosphorylation (pThr fixed, at -1): 0.786
relative phosphorylation (pThr fixed, at -2): 1.26
relative phosphorylation (pThr fixed, at -3): 0.929
relative phosphorylation (pThr fixed, at -4): 1.03
relative phosphorylation (pThr fixed, at -5): 0.999
relative phosphorylation (pTyr fixed, at +1): 1.08
relative phosphorylation (pTyr fixed, at +2): 1.3
relative phosphorylation (pTyr fixed, at +3): 0.4
relative phosphorylation (pTyr fixed, at +4): 0.683
relative phosphorylation (pTyr fixed, at +5): 0.779
relative phosphorylation (pTyr fixed, at -1): 2.06
relative phosphorylation (pTyr fixed, at -2): 0.955
relative phosphorylation (pTyr fixed, at -3): 1.08
relative phosphorylation (pTyr fixed, at -4): 1.02
relative phosphorylation (pTyr fixed, at -5): 0.894
